Earlier results, collected in PMC9020725.

What was measured:
[1] = molecular target: ankyrin band 3 binding domain (Homo sapiens) (UniProt P16157)
[2] = molecular target: beta-spectrin repeats 10-13 (Homo sapiens) (UniProt P11277)
UniProt P11277, sequence (P11277 1275-1688): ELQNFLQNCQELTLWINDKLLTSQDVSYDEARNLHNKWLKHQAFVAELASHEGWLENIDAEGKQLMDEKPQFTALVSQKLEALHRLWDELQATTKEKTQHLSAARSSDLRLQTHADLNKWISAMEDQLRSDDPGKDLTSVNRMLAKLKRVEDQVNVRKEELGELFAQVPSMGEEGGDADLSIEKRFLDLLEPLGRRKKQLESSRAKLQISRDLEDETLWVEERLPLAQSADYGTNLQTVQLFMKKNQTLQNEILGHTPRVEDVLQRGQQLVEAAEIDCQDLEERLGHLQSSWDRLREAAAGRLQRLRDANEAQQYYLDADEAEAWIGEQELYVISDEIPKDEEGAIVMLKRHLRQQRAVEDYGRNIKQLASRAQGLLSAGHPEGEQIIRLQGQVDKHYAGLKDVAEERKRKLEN

UniProt P16157, sequence (P16157 1-827): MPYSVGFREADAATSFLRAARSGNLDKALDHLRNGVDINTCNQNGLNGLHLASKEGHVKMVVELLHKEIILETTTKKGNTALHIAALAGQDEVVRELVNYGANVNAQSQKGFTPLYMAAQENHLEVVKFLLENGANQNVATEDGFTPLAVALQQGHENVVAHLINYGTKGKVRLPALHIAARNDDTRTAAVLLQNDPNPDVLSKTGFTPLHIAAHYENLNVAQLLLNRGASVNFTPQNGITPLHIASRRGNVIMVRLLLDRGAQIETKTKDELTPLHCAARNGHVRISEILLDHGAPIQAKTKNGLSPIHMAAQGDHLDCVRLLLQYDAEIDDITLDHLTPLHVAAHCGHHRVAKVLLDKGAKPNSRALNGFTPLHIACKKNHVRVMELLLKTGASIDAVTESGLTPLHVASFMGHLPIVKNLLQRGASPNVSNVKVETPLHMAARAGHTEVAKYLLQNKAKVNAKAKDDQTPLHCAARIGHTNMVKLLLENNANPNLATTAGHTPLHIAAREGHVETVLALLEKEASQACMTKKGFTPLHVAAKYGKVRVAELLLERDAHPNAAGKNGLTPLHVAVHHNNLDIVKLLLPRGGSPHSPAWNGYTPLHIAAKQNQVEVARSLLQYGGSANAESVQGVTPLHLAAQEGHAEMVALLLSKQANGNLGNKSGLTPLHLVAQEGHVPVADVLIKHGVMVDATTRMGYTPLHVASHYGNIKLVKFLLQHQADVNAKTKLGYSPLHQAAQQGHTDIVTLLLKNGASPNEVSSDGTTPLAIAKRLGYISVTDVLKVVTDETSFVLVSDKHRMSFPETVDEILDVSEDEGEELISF

Q: Which Kd [1] does the source give for KAHRP (from UniProt P09346) here?
A: The Kd was 1550 nM.

Q: And the Kd [2]?
A: Its Kd is 50 µM.
